Experimental data from the DeepSol protein solubility set.

Assay: soluble on expression in E. coli; label from the status in PepcDB or PDB records

Sequence	soluble on expression in E. coli
MSLNLEKINELTAQDMAGVNAAILEQLNSDVQLINQLGYYIVSGGGKRIRPMIAVLAARAVGYEGNAHVTIAALIEFIHTATLLHDDVVDESDMRRGKATANAAFGNAASVLVGDFIYTRAFQMMTSLGSLKVLEVMSEAVNVIAEGEVLQLMNVNDPDITEENYMRVIYSKTARLFEAAAQCSGILAGCTPEEEKGLQDYGRYLGTAFQLIDDLLDYNADGEQLGKNVGDDLNEGKPTLPLLHAMHHGTPEQAQMIRTAIEQGNGRHLLEPVLEAMNACGSLEWTRQRAEEEADKAIAALQVLPDTPWREALIGLAHIAVQRDREGHHHHHH	soluble
MVVSSKMDIFNELESQVRSYSRSFPTIFTKSKGYKLWDVDGKEYIDFFSGAGALNYGHNDDKMKQVLIDYLLEDGIIHSLDMGTSAKVNFLKHFNKIILEPRDLNYKIMFPGPTGTNSVESALKIARKVTGRTNIISFSNAFHGMSLGSLSITSNHFKRKGAGVPLNNSIIMPYENYLDSLNSLSYLEKVLGDSGSGVALPAAIILETVQGEGGLNTASSQWLKGIDRLCKKYNILLIVDDIQAGCGRTGTFFSFEPASIKPDIICLSKSISGIGLPMAITLIKPEYDKWEPGEHNGTFRGNNLAFLAATEALSYWKDIEFINALKWKSEKITSFLNEICLKYPQLQGEVRGRGFMQGIACNTFGIAKKICSVAFENGLIIETSGPNDEVIKLLPSLTIDLEGLSKGLEMLEDSISTILKEVTH	not soluble
MSLKENNMDKAHIGFIGLGLMGAAMVECLQKAGHAVTVLGNRDRTGVEAALARGATEAAHARAVAEASDIVMLCMGTSAQVESRIYGDDGVLAGTREGQVVIDFGTSLPASTRRIGGDLAGKGATYLDAPLGRTPAHARDGLLNIMCSGDKATFDRVKPVLHTLGENVFHLGALGNGHTIKLINNCYSMTTACAMAEAFAIADATGIERQALYNVMAAGPNHSGMMDFINAYANGGRIDLAFTVANAAKDVGYYRQMATEMGLFSRMSIAADATLREARDGGDGGLMVPQMIDWMVRHLGEEGHHHHHH	soluble
MASQLLINDSKYGFLKELGLTENNAGVFHGKWAASGQVVQSFAPANNSPIANVQNGNVQDYEIAISEAKKAYNDWCEVPAPRRGEIVRQIGDKLRTQLQNLGKLVSLEMGKISAEGVGEVQEYVDICDYATGLSRSLEGKIFPSERPGHALLEQWNPLGVVGVISAFNFPCAVYGWNNALALVTGNSVVWKPAPSTPLTAIAVTKLVEEVLVANNVNPALCSLVCGEGDVGQALVKDKRVNLVSFTGSSEIGKIVGQQVQARFGKLLLELGGNNAIIVNEDADLNMVVPATVFAAVGTAGQRCTTTRRLIVHDKVYDQVLERLKKAYAQFESRIGCPLDSNTIIGPLHNQQAVGKYKASVAEAVASGGKIEYGGKVLERDGNFVLPTIVTGLKHDSPVVLRETFAPILYVLKFSTLEEAIAINNEVDQGLSSSLFTTNIQNVFKWMGPKGSDCGIVNVNIPTSGAEIGGAFGGEKETGGGRESGSDSWRQYMRRSTCTINYSKELPLAQGIKFE	not soluble
MAFICELDEQWSYVGSKARQHWLGYAYNTKTGGVLAYTFGPRTDQTCRELLALLTPFNIGMLTSDDWGSYGREVPKNKHLTGKIFTQRIERNNLTLRTRIKRLGRKTICFSRSVEIHEKVIGAFIEKHMFYLEHHHHHH	soluble
MGSDKIHHHHHHMPRNMPCPDNTMPSLSFWWRYPYLRVLVVVLLMTSQPCAISAQASTSPSVAQSSLRHLSDQLPIVGVWLTNSPSPLYYSRNLMHKAVKDLYSAGFTALYLNVWSRGSTFHRSNYAPVEGPLQKAGLALDPICTLSREGHARGMKVMPWFEYGLMEPDDAEVVKLHPDWVLARADGNPVVKMHGNHQRVWLNPAHPEVRARFIGVVIEVMKRCKMDGVQLDDHFAWPVKLGYDPYTVALYQQETGSSPPRDYSDRFWMQWRRRKLTGLLRELRQALEKEKLPVNISLAPGPFRFAYNNWLQDWELWTVGKLIDELVVQNYAYSLKGFAKDLDQPALRKAPQLGVPVHIGVLAGFGKRTTPMPILAEKVRMAAERGHGVIYFYWEGLWGQHAGIEGGIQRLRQFKQLHEKKN	not soluble
MEQKYEEDIQKLQQEIEMLEAEQEETLRSIFVQHGDRLQQGVKSACEERGGGGAQQHTLSKLITEVRELEKDLRRQTEINGITLNECFVKTLHKSERKLIQQLRLAGHCGLLLFQVEFAVTEIQEDNVLHRRVTELNIVVDGVEFKDFSAFVSRVEDTKDLLLFFRTLRTFSERCEDRRQTFQHFQEKYPDVVNLPEGCRSEIMIIRSPQLPGISMTLFWKIHVSKEGVVKPLLDLLLKMPDQALELDTKKVMEKASDYFQSLLQLLGVEASIEGLIRTVCS	not soluble
MAHHHHHHMDSASGDGGDGAPASAERHSLKPLRWIEEVRDASQPNAVFLNVYDVRGSSTLLYSVGWGVHHVGVQVYGKEYQYGHRPIGKGIGSVKPHQSPPHTYREQFFLGQTQLSASEVEKLVVAFSDKVEWLGSNYHLVKHNCIDFARAFCEALLPPAVRVEQARRAEEAGLSQKMHMVEVEVDGMRHSVPVLIPHHVDRLARYAAHYLPKSSMQRFDRLESSFFSMSEVPQERGQPTAADPDTNRSTTPTPQPHTRTSH	not soluble
FASNWVSHTHEVIQTIDTCLYDIVEIESRQRFYLIRGSSSQLMADIDDMKSTLQLNLDKLEQLTRDNPEQNKRIHRFIDLVKQRLNLLNQLVQLKGSGKLDTQEGYDLLNQSQDMSHQVKSLGQEIKSVELVLLSERNTG	not soluble
MSLKALNKETAPKVQRPERIIQFGEGNFLRAFVDWIIYNMNQKTDFNSSVVVVQPIDKGMVDMLNAQDDLYHVNLQGLDKGEVVNSLTMIDVISRALNPYTQNDEFMKLAEQPEMRFVISNTTEAGIAFDPTCKLEDAPASSYPGKLTQLLYHRFKTFNGDKTKGLIIFPCELIFLNGHKLKETIYQYIDLWNLGNEFKTWFEEACGVYATLVDRIVPGFPRKDIAAIKEKIQYDDNLVVQAEIFHLWVIEAPQEVAKEFPADKAGLNVLFVPSEAPYHERKVTLLNGPHTVLSPVAYLSGVNIVRDACQHEVIGKYIHKVMFDELMETLNLPKEELKKFAEDVLERFNNPFVDHAVTSIMLNSFPKYETRDLPGLKTYLERKGELPKGLVLGLAAIITYYKGGVRADGAEIVPNDAPEIMNLLKELWATGCTKKVTEGVLAAEFIWGEDLNKIPGLAAAVKADLDSIQEKGMLETVKGILEGHHHHHH	soluble
MRSLISSLDLTREEVEEILKYAKEFKEGKEETIKASAVLFFSEPSTRTRLSFEKAARELGIETYLVSGSESSTVKGESFFDTLKTFEGLGFDYVVFRVPFVFFPYKEIVKSLNLRLVNAGDGTHQHPSQGLIDFFTIKEHFGEVKDLRVLYVGDIKHSRVFRSGAPLLNMFGAKIGVCGPKTLIPRDVEVFKVDVFDDVDKGIDWADVVIWLRLQKERQKENYIPSESSYFKQFGLTKERFEKVKLYMHPGPVNRNVDIDHELVYTEKSLIQEQVKNGIPVRKAIYKFLWT	soluble
MSKPMKILLANPRGFCAGVDRAISIVERALELYQPPIYVRHEVVHNRFVVEGLKQRGARFVEELNEVPDDNIVIFSAHGVSQAVRQEAKERSLTVFDATCPLVTKVHMEVARASRKHMEVVLIGHAGHPEVEGTMGQYASDTGGMYLVEKPEDVVSLQAKVKDPSNLHYVSQTTLSVDETADVIDELRRVFPKIQGPRKDDICYATQNRQDAVRILAEQVDVMVVVGSKNSSNSTRLKELAEKLGTPGYLIDCPQDIDPEWFVDAQLIGVTAGASAPEELVNQILDRIKELGATSVEEVLGREENMFFEVPKELQIKQVD	soluble
MAHHHHHHMTTADDVCGAYTLSHCDGKVAPTKATLTIHRCGEILTAHVTVVNDLRGTVQYENCHIVGSLHSTGNEASPAQESVEQALSKGFADGFNVVVEMNQVLLKNANSAFVFARLSKLSDLNGEHAIIAINDQPPNQEMTMIFTPDGNGGSFVAANIANSLRGNCQIDAGLLRGDLATTQSEADESLMQVEKLISEGFQQGFHVCMNESGILLQSSEANIQLCRIVSHSDLEGEYVLKSFNGAPVPTRNQPSIVFKSVNTNEVEISIVVANRIRGTAALNQNVLSSEEPLMSTRMMGTEEESQLENAFNVGFQYGLETISHGNELTLKNQDCKFVLVKAAAPAAQHGGPTYKGTYCNKCFKTEGNGLLFRIVNEHEKKWAFYNDTEDLRIRVRATFGARSKIEALDNANMYKDDDGRYVVEVTVDPQATEMFIQGDVNGFRVLYDAQPI	not soluble
